# Target: T1, GST-FKH-FoxA2 (Rattus norvegicus (rat; cloned from genomic DNA)) (UniProt P32182)
# T1 sequence (P32182 145-290, looked up): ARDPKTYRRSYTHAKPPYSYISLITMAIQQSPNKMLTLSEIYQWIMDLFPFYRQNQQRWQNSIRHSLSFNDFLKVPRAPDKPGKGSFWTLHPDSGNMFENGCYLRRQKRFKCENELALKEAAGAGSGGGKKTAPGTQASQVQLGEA
# Test: EMSA and self-competition
# Settings: reference probe; 25 mM HEPES pH 7.6, 150 mM KCl, 0.2 mM EDTA, 0.2 mM EGTA, 10% glycerol, 1 mM DTT, 3 ug protein, 1 ng 32P-TTR probe, 2/5/20 ng competitor, on ice 15 min; 4% …
sequence,measurement,value
CAGTCGAGTTGACTAAGTCAATAATCAGAATCAGTCG (double strand) [TTR],binding signal (EMSA score (TTR=1)),1

# Reference: publication PMC4234207
